Legend:
[1] = test system: BBCEC monolayers; assay: Accumulation of ligands in BBCEC monolayers; type: cell-based, bovine; conditions: native proteins (FIG. 13c)
Method: (§1) FIG. 7 illustrates the results of experiments where the ligands p97, Lf and Tf were heated or not heated prior to the binding study. In all cases, binding experiments were conducted in the transwell apparatus as described previously, with the exception that binding was conducted at either 4° C. or at 37° C. For the 37° C. trial, a separate experiment was conducted where the ligand was boiled for 30 mins then rapidly cooled prior to administration on the transwell plates.
(§2) FIG. 13 illustrates the transcytosis and accumulation of p97 and transferrin in BBCEC monolayers. FIG. 13a, Transcytosis experiments were performed at 37° C. (solid bars) or 4° C. (white bars). [^125I]-p97 or bovine [^125I]-holo-transferrin (1 mg/ml) was added to the upper side of the cell-covered filter. At the end of the experiment, radiolabelled proteins were measured in the lower chamber of each well by TCA precipitation (n=4). Controls were also performed at 37° C. with denatured [^125I]-p97 or bovine [^125I]-holo-transferrin boiled for 30 min (grey bars) (n=2); FIG. 13b, Biospecific interaction analysis was performed with native or boiled p97 for the indicated times. MAb L235 (5 μg) was immobilized on a sensor chip (SM5) using standard procedures incorporating NHS, EDC and ethanolamine. Native and boiled p97 (5 to 30 min) diluted at 1 mg/ml in Ringer/Hepes was cooled and injected into the BIAcore. The surface plasmon resonance response obtained for native p97 and boiled p97 was plotted (in relative units (RU)) as a function of time; FIG. 13c, The accumulation of both proteins into BBEC cells were also measured. Briefly, after incubation at 37° C. (solid bars) or 4° C. (white bars) with either [^125I]-protein, cells were washed four times with cold PBS. Accumulation of both denatured proteins (grey bars) was also measured at 37° C. Filters were then removed, and the radioactivity associated with the cells was quantified (n=3).
as §1, with “In” for “FIG. 7 illustrates the results of experiments where the ligands p97, Lf and Tf were heated or not heated prior to the binding study. In”

[2] = test system: BBCEC monolayers; assay: Transcytosis across BBCEC monolayers (in vitro BBB model); type: cell-based, bovine; conditions: 200-fold molar excess of competitor, [125I]-p97 25 nM (FIG. 15a, 15b)
Source text: FIG. 10 assesses the ability of several agents to interfere with p97 transyctosis. FIG. 10a, transcytosis of I125-P97 was compared in the presence of cold p97 (5 micromolar), Lf (5 micromolar), and Tf (5 micromolar). […] FIG. 10c, RAP, a known poly-peptide inhibitor of the LDL-Receptor family was applied to the cells (25 micrograms/ml).
FIG. 11 examines the accumulation and transcytosis of p97. FIG. 11a, of [^125I]-p97, [^125I]-BSA and [^125I]-holo-transferrin one hour after i.v. injection. The radioactivity in brain was compared between the three compounds. (n=3); FIG. 11b, Accumulation of p97 and transferrin into the mouse brain parenchyma. In situ brain perfusion was performed with human [^125I]-p97 or [^125I]-holo-transferrin at a final concentration of 10 nM via a catheter inserted in the right common carotid artery. The volume of distribution (VD) of [^125I]-proteins were obtained in the whole brain homogenate (white bars), in brain capillaries (solid bars) and in brain parenchyma (hatched bars) after isolation of the right hemisphere and capillary depletion. Results were obtained for p97 (n=10) and for holo-transferrin (n=6); FIG. 11c, Transcytosis of p97 across BBCEC monolayers. Transcytosis experiments were performed 37° C. (open circles) and 4° C. (closed circles) with BBCEC monolayers. [^125I]-p97 (1 mg/ml) was added to the upper side of the cell-covered filter. One representative experiment is shown (n=4); FIG. 11d, Preferential transport of p97 across the BBCEC monolayers. Apical-to-basal and basal-to-apical transport of [^125I]-p97 (25 nM) was measured for 2 hrs at 37° C. At the end of the experiment, [^125I]-p97 was assessed in the lower or upper chambers of each well by TCA precipitation (n=4).
as §2
FIG. 14 illustrates the stability of p97 and integrity of the BBCEC monolayers following p97 transcytosis. FIG. 14a, Transcytosis experiments were performed at 37° C. and 4° C. by adding p97 (1 mg/ml) to the upper compartment. At the end of the experiment, 50 μl from each lower chamber was used for SDS-polyacrylamide gel electrophoresis. After electrophoresis, the gels were stained with Coomassie Blue. A standard curve was also made with known amounts of recombinant p97 (0-2 μg); FIG. 14b. The gels were dried and scanned to quantify the amount of intact p97 that crossed the BBCEC monolayers at 37° C. and 4° C. (n=3); FIG. 14c, Effect of p97 on sucrose permeability of BBCE cell monolayers co-cultured with astrocytes. […]

B1: bovine holo-transferrin: bovine holo-transferrin (protein, UniProt Q29443 20-704, looked up)
Serotransferrin: DPERTVRWCTISTHEANKCASFRENVLRILESGPFVSCVKKTSHMDCIKAISNNEADAVTLDGGLVYEAGLKPNNLKPVVAEFHGTKDNPQTHYYAVAVVKKDTDFKLNELRGKKSCHTGLGRSAGWNIPMAKLYKELPDPQESIQRAAANFFSASCVPCADQSSFPKLCQLCAGKGTDKCACSNHEPYFGYSGAFKCLMEGAGDVAFVKHSTVFDNLPNPEDRKNYELLCGDNTRKSVDDYQECYLAMVPSHAVVARTVGGKEDVIWELLNHAQEHFGKDKPDNFQLFQSPHGKDLLFKDSADGFLKIPSKMDFELYLGYEYVTALQNLRESKPPDSSKDECMVKWCAIGHQERTKCDRWSGFSGGAIECETAENTEECIAKIMKGEADAMSLDGGYLYIAGKCGLVPVLAENYKTEGESCKNTPEKGYLAVAVVKTSDANINWNNLKDKKSCHTAVDRTAGWNIPMGLLYSKINNCKFDEFFSAGCAPGSPRNSSLCALCIGSEKGTGKECVPNSNERYYGYTGAFRCLVEKGDVAFVKDQTVIQNTDGNNNEAWAKNLKKENFEVLCKDGTRKPVTDAENCHLARGPNHAVVSRKDKATCVEKILNKQQDDFGKSVTDCTSNFCLFQSNSKDLLFRDDTKCLASIAKKTYDSYLGDDYVRAMTNLRQCSTSKLLEACTFHKP
modifications: iron-loaded (holo)
Q: What does the source list for B1?
A: Accumulation in BBCE cells [1]: no significant accumulation; Reduction of apical-to-basal transport of [125I]-p97 [2]: had no impact
